# Data: the supplement of paper PMC9170038
# System: MS2 coat protein
# Assay: apparent KD of MS2 coat protein; designed switch direction (-1 OFF switch, 1 ON switch): -1; higher = weaker reporter binding
# In short: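 The buffer was Tris-HCl pH 7.5 with KCl, MgCl2, BSA, DTT, tRNA and Tween-20. In it, SNAP-549-labelled MS2 coat protein was titrated in doubling steps from 0.7 or 1.5 nM to 3 µM over chip-bound RNA switches transcribed by stalled E. coli RNA polymerase on Illumina chips. Apparent KD is the per-design median over clusters of curve fits to normalised fluorescence.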
# [1] = Eterna round: R95, input ligand: microRNA oligo, concentration not stated
# [2] = Eterna round: R95, input ligand: FMN 200 uM
# [3] = Eterna round: R95, input ligand: none
# [4] = input ligand: microRNA oligo, concentration not stated
Sequence,apparent KD of MS2 coat protein (input ligand: FMN 200 uM) [nM],apparent KD of MS2 coat protein (input ligand: none) [nM],apparent KD of MS2 coat protein [1] [nM],apparent KD of MS2 coat protein [2] [nM],apparent KD of MS2 coat protein [3] [nM],apparent KD of MS2 coat protein [4] [nM]
"CAUUAGCAAGCGAGAUCCCACAUGAGGAUCACCCAUGUGCUCGUCUUAUAAGGUACUGUGACGAGAGUCACGGUACC [Mat - Sensor, turn-off var - Eli Mod - D42] (Eterna round: R97, puzzle: Sensor, turn-off variant 1)",15.2,16.1,,,,
UUUCUGUGAGGAUAUCAGUAGUAAAUAAAUAAAAUUACUACUGAGAAGGCACAUGAGGAUCACCCAUGUUCCUU [salish99_ex3_r3_093] (puzzle: Exclusion 4),,,13.1,,,
"GAUUAUGCAAGCUUUAGGGACAUGAGGAUCACCCAUGUUCGUCUUAUUGAUCUAGGUACGCUGACGUACCUAGAUCU [JL-sv1-2.32 Brourd mod] (puzzle: Sensor v3, turn-off variant 1)",,,44.6,17,14.8,
"CUGGAGUCAGGAUAUGACGCAGUCCGCCCAAAGGGCGGAAAUCAGAAGGGACUUGAGGAUCACCCAAGUAAAAG [Gecear] (Eterna round: R97, puzzle: Exclusion 4)",28.8,31.4,,,,
UCUAAACAUGAGGAUCACCCAUGUGAGGAUAUGAUGCAGCAGUGGUCUACGCUGUGCAUCAGAAGGCGCAUGUG (puzzle: Exclusion 1),,,72.2,148,80.4,
"UGUUGUCGCGUAGGAUAUGGCCAACAGGCCCUAGGAUAUCGGAAACGAGAAGGAGCGCCAACAGGCGAGAAGGACGGGACAACU [pwkr exNG2 2xF7 2xFMN.20] (Eterna round: R96, puzzle: Exclusion NG 2)",33,10.7,,,,52.7
CCGAAUAUGUAGGAUAUCGUAUCGGAAACGAUACGAGAAGGGCAAACAUGAGGAUCACCCAUGUUCCUUAACGG [Fiskers Ex 6 - 13] (puzzle: Exclusion 6),,,15.1,16.3,14.2,
"AAGAAACAUGAGGAUCACCCAUGUGAGGAUAUGAGCACGACCGUGAGGUCGAUAAGAAUCAGAAGGCACAUUAA [JL-ex1-4.55] (Eterna round: R97, puzzle: Exclusion 1)",137,41.8,,,,
"AGUACUGAGCAGGAUAUAUACAGGAUGCCCUCUGUAGAAGGGCUAACAUGAGGAUCACCCAUGUCCUAUAUGGC [Eternabot (L2) Solution 56] (Eterna round: R97, puzzle: Exclusion 6)",39,49.1,,,,
"GUCCGGCAUGUAGGAUAUGGAUCCGAUUAGGAUUUAGAAGGACAUGAGGAUCACCCAUGUGCAUUUAAUUAGUCAUUACCGGAC [EXclNG1-LROPPY04] (Eterna round: R96, puzzle: Exclusion NG 1)",16.4,16.6,,,,12.5
UUUUUACAUGAGGAUCACCCAUGUCAGGAUAUGUUUAUAUUUUAUUAUUUUAUUUUUUACAGAAGGGACUAUUA [My solution] (puzzle: Exclusion 1),,,123,,,
"UAUUAGCAAGUAAGAUCCCACAUGAGGAUCACCCAUGUGCUCGUCAUAUAACGUACUGUGAGGAAACUCACGGUACG [Sensor-V1 #84] (Eterna round: R97, puzzle: Sensor, turn-off variant 1)",85,103,,,,
CAGUACUGAGGAUAUACAUGAGGAUCACCCAUGUGCUCGAAGUAGGAUACUACUAUUAGUAGAAGGCAGUACUG [Fiskers Ex 3 828 mod 22] (puzzle: Exclusion 3),,,15.9,,,
"CAGCCCUGAGGAUAUCCCUACUUGCACAUGAGGAUCACCCAUGUCCUCCUCCGGGCUUCGGGAGAAGGCAGGUCUC [Megrez-7.5] (Eterna round: R97, puzzle: Exclusion 5)",23.8,17,,,,
"AACGCGUGAGGAUAUUGAGGUCUAAAAUGGUAACAUGACCACGAGAAGGCACAUGAGGAUCACCCAUGUUCCCG [Eternabot (L2) Solution 49] (Eterna round: R97, puzzle: Exclusion 4)",85.1,17.8,,,,
"GCUUUAUGCUCGUUAUAACACAUGAGGAUCACCCAUGUUCGGGCUUACGAGUCGUUCUGAAUGUGACCCUGCAUGAG [Eternabot (L2) Solution 47] (Eterna round: R97, puzzle: Sensor, turn-off variant 1)",200,193,,,,
"GACUGGACAGGAUAUGUUCUUGAGCACUUGAGGAUCACCCAAGUCAUCAAGAACUCAGGCACAGAAGGGUUUAUGC [salish99_ex5_r4_011] (Eterna round: R97, puzzle: Exclusion 5)",19.5,13.7,,,,
"AAAUAACAAGCGAGAUCCUACAUGAGGAUCACCCAUGUGCUCGUCUUAUUAAGUACUAUCACGAAAGUGAUAGUACA [Mat - Sensor v3 - turn-off var 1 - Eli Mod - D66] (puzzle: Sensor v3, turn-off variant 1)",,,239,18.4,18.4,

Sequence,apparent KD of MS2 coat protein (input ligand: FMN 200 uM) [nM],apparent KD of MS2 coat protein (input ligand: none) [nM],apparent KD of MS2 coat protein [1] [nM],apparent KD of MS2 coat protein [2] [nM],apparent KD of MS2 coat protein [3] [nM],apparent KD of MS2 coat protein [4] [nM]
AAGAAACAUGAGGAUCACCCAUGUGAGGAUAUGAAAAAGAAAAGAAAAGAAAGAAGAAUCAGAAGGCACAAAGU [salish99-ex1_r3_089] (puzzle: Exclusion 1),,,25.9,26.5,32.6,
CUUUUGUGAGGAUAUCAGUAGUAAAUAAAUAAAAUUACUACUGAGAAGGCACAUGAGGAUCACCCAUGUUCCUU [salish99_ex3_r3_089] (puzzle: Exclusion 4),,,15.3,,,
AAAGGUGAGUAGGAUAUCCGCGCACGAAUAAAAGGAGAAGGACUUACAUGAGGAUCACCCAUGUAAGGUGGUAA [Ationbi] (puzzle: Exclusion 6),,,11.7,19.4,15.1,
"GAUCAGGUAGGAUAUGCAGGAUCGGACUUGAGGAUCACCCAAGUGGCCAAAGUGCGUCCCGCAGAAGGGCCAAAAC [Biinxelace] (Eterna round: R97, puzzle: Exclusion 5)",439,618,,,,
"GUUAUGUCAGGAUAUGCUAAUGAUGAAUGAUCAGACAUGAUGUAGAAGGGACAUGAGGAUCACCCAUGUAAUAU [EX4 #7] (Eterna round: R97, puzzle: Exclusion 4)",32.3,25,,,,
"GUAGAUCGAGUUAGGAUAUGAUUAAAAUCCGGAUAUCAGAAGGAACUUGAGGAUCACCCAAGUAUAGAUGAUUU [JR_BMEx4_Sub055] (Eterna round: R97, puzzle: Brourd's mod of Exclusion 4)",104,23.2,,,,
"GGCAUCGGAGGAUAUACUAAUGGUGAUGCCCGAAGCUUUCUACUUGAGGAUCACCCAAGUAGAAGGCCGAUGCC [jl-ex2.4.80 ViennaUCT mod] (Eterna round: R97, puzzle: Exclusion 2)",11,13.1,,,,
UAAAAGAAGGUCAGGAUAUGUAGUGAGCAAUCAGGACAGAAGGGACAUGAGGAUCACCCAUGUAACAGGGUAAA [Eninares] (puzzle: Brourd's mod of Exclusion 4),,,44.6,104,43.1,
"UGCAGACGAGGAUAUAGAUUUAAGUACAUGAGGAUCACCCAUGUACAUAUGUAUUUAGAUUUAGAAGGCGUCUGCU [E5/16-A4] (Eterna round: R97, puzzle: Exclusion 5)",28.5,29.8,,,,
"ACAAAGGACAUGAGGAUCACCCAUGUGGUGCACAAGUCCAGCAAGGAUAUCCAAGUCCCAUAAACGGAGAAGGUGCAUAAUAAG [Inesxeed] (Eterna round: R96, puzzle: Exclusion NG 3)",283,113,,,,86.6
"UUUCGGCAUGUAGGAUAUGGGUCCGAUUAGGAUUUAGAAGGACAUGAGGAUCACCCAUGUGCAUUUAAUUGGUCAUUACCUUUU [EXclNG1-LROPPY10] (Eterna round: R96, puzzle: Exclusion NG 1)",,,,,,46.5
"AAUAACAAGCAGAUCCUCCACAUGAGGAUCACCCAUGUGCUCGUCUUGUAAAGUACUAUCACGAAAGUGAUAGUACA (Eterna round: R97, puzzle: Sensor, turn-off variant 1)",724,718,,,,
AGAUGGCGAGGAUAUACAUGAGGAUCACCCAUGUGAGAAGAAAGAGUGAGGAAGAAAAGUAGAAGGCGCUGUCA [Mat - Exclusion 3 - Mod of Salish D19] (puzzle: Exclusion 3),,,95.4,209,76.1,
"GCAAAAUAUCAGGAUAUGACUAGCUGCGGCUAGUCAGAAGGGAUAACAUGAGGAUCACCCAUGUGAUAAAGUGU [JR_Ex6_Sub029] (Eterna round: R97, puzzle: Exclusion 6)",66.7,60.4,,,,
"CGGCAAAGGUAGGAUAUGCUAGACGAGAGUCUAGCAGAAGGACCUACAUGAGGAUCACCCAUGUGUCCAAGCCG [Mat - Exclusion 6 - Eli Mod - D20] (Eterna round: R97, puzzle: Exclusion 6)",32,97.3,,,,
"CGGAUGUAAGGAUAUUAGUAGUAGUCAGAAUAGACUAUUACUGAGAAGGUACAUGAGGAUCACCCAUGUUUCCG [Eli x4 4.18] (Eterna round: R97, puzzle: Exclusion 4)",27.5,16.8,,,,
"GUUUCACAUGAGGAUCACCCAUGUGAGGAUAUAAAUUUGUUAACCGUAGUUAAUAGAUUUAGAAGGCGCGUGAU [JR_Exc1_Sub001] (Eterna round: R97, puzzle: Exclusion 1)",68.2,63.1,,,,
